For this data set the following is noted: Equus caballus; pH 7; 10 °C; GdnHCl; Fluorescence; Imidazole 50 mM.

Several values for one entry are separate records, joined by “and”; a condition that tells them apart may be missing. Equal values may be shown once.

Among the data in FireProtDB (doi:10.1021/bi982209j) are denaturant m value and unfolding free energy values, retold here.

Chain of Cytochrome c wild type, P00004 (P00004 whole entry): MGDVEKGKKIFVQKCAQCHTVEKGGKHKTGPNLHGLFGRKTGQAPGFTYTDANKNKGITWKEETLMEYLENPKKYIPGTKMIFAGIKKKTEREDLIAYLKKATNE

Consider Cytochrome c wild type, P00004, for which the denaturant m value turned out to be 2.7 kcal/mol/M; the unfolding free energy was 33.9 kJ/mol and 32.6 kJ/mol.
